Test results reported in patent US20050070694A1 (Eli Lilly, published 2005).

Columns and labels:
[1] = target: Chimera D (human TNFSF13b L53V, K55R, E56Q) (human, UniProt Q9Y275 134-285); test: cell-based or functional assay
[2] = target: Chimera A (human TNFSF13b L139R, D140N) (human, UniProt Q9Y275 134-285); test: cell-based or functional assay
[3] = target: Chimera B (human TNFSF13b K71P, T72I, Y73F) (human, UniProt Q9Y275 134-285); test: cell-based or functional assay
[4] = target: Chimera E (human TNFSF13b E105K) (human, UniProt Q9Y275 134-285); test: cell-based or functional assay
[5] = target: T1, recombinant soluble human TNFSF13b (hTNFSF13b) (human, UniProt Q9Y275 134-285); test: cell-based or functional assay
[6] = target: T1, recombinant soluble human TNFSF13b …; test: BIAcore 2000 SPR at 25 C; antibody captured by anti-human IgG Fc, hTNFSF13b as analyte from 50 nM in 2-fold dilutions; Langmuir 1:1 model
murine TNFSF13b = target: T2, murine TNFSF13b (mouse, UniProt Q9WU72 127-309); test: sandwich ELISA with 4A5-3.1.1-B4 as both capture and detecting mAb
T2 construct: Used as supernatants of CHO cells or 293 transfectants expressing murine TNFSF13b, and as purified protein; also called Mouse TNFSF13b; mouse TNFSF13b parent molecule
T2 sequence (Q9WU72 127-309 limits assumed): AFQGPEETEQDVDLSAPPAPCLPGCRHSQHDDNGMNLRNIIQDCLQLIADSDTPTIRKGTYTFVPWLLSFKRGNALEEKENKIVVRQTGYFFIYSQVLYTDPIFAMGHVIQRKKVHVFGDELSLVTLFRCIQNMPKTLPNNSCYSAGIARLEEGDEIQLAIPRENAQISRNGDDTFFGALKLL

T1 sequence (Q9Y275 134-285): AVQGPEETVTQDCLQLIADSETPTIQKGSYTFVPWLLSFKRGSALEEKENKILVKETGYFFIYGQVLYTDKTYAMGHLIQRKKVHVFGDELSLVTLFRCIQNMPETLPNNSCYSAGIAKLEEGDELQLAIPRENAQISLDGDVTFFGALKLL
Chimera B (human TNFSF13b K71P, T72I, Y73F), sequence (Q9Y275 134-285, stated change not applied): as the sequence (Q9Y275 134-285) above
Chimera A (human TNFSF13b L139R, D140N), sequence (Q9Y275 134-285, stated change not applied): as the sequence (Q9Y275 134-285) above
Chimera E (human TNFSF13b E105K), sequence (Q9Y275 134-285, stated change not applied): as the sequence (Q9Y275 134-285) above
Chimera D (human TNFSF13b L53V, K55R, E56Q), sequence (Q9Y275 134-285, stated change not applied): as the sequence (Q9Y275 134-285) above

B1: human antibody 4A5-3.1.1-B4 (antibody, V domains shown)
VH: QVQLQQWGAGLLKPSETLSLTCAVYGGSFSGYYWSWIRQPPGKGLEWIGEINHSGSTNYNPSLKSRVTISVDTSKNQFSLKLSSVTAADTAVYYCARGYYDILTGYYYYFDYWGQGTLVTVSS
VL: EIVLTQSPATLSLSPGERATLSCRASQSVSRYLAWYQQKPGQAPRLLIYDASNRATGIPARFSGSGSGTDSTLTISSLEPEDFAVYYCQQRSNWPRTFGQGTKVEIKR
notes: Hybridoma-derived human monoclonal antibody from HuMAb mice, with a human kappa light chain; also called 4A5 mAb; 4A5-3.1.11-B4
neutralization of proliferation, 293 supernatants, 6 ug/ml of 4A5-3.1.1-B4 [1]: 100% | neutralization of proliferation, 11 ng/ml purified TNFSF13b, 1 ug/ml of 4A5-3.1.1-B4 [2]: 100% | neutralization of proliferation, 293 supernatants, 6 ug/ml of 4A5-3.1.1-B4 [2]: 100% | neutralization of proliferation, 11 ng/ml purified TNFSF13b, 1 ug/ml of 4A5-3.1.1-B4 [3]: 88% | neutralization of proliferation, 293 supernatants, 6 ug/ml of 4A5-3.1.1-B4 [3]: 100% | neutralization of proliferation, 293 supernatants, 6 ug/ml of 4A5-3.1.1-B4 [4]: 100% | neutralization of proliferation, 11 ng/ml purified TNFSF13b, 1 ug/ml of 4A5-3.1.1-B4 [5]: 100% | neutralization of proliferation, 293 supernatants, 6 ug/ml of 4A5-3.1.1-B4 [5]: 100% | Kd [6]: 38 pM | binding result (murine TNFSF13b): no binding
